Source: article PMC7457537, “Influence of the amino-terminal sequence on the structure and function of HIV integrase” (Retrovirology, 2020)

Legend:
Conditions in all cases: both partners purified
[1] = molecular target: T1, HIV-1 integrase with native N-terminal phenylalanine (IN 1F), full-length, wild type (HIV-1 (NL4-3)); experiment: AUC; sedimentation equilibrium, 4 °C, 20 mM HEPES-NaOH pH 7.5, 1 M NaCl, 7 mM CHAPS, 10 µM ZnOAc2, 10 µM β-mercaptoethanol; global fit at 16, 20, 24 krpm (SEDPHAT); dimer to monomers
T1 chain: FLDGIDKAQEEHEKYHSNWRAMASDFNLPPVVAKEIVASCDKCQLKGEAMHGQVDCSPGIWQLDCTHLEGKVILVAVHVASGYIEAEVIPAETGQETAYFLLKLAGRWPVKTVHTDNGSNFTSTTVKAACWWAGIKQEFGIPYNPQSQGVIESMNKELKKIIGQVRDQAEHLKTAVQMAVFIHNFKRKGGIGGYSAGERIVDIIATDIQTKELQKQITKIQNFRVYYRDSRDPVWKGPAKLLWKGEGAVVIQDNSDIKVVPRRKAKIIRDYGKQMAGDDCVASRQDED

[2] = molecular target: T1, HIV-1 integrase with native N-terminal …; experiment: AUC; sedimentation equilibrium, 4 °C, same data and buffer as the monomer-dimer fit; attempted fit of a dimer-tetramer equilibrium: tetramer to dimers
[3] = molecular target: T1, HIV-1 integrase with native N-terminal …; experiment: SEC-MALS; Superdex 200 10/300, 25 °C, 20 mM HEPES-NaOH pH 7.5, 500 mM-1 M NaCl, 7 mM CHAPS, 10 µM ZnOAc2, 10 µM β-mercaptoethanol; eluted concentrations ~8-10 µM (IN 1F, IN MF); self-association

B1: HIV-1 integrase with native N-terminal phenylalanine (IN 1F), full-length, wild type (enzyme)
chain: FLDGIDKAQEEHEKYHSNWRAMASDFNLPPVVAKEIVASCDKCQLKGEAMHGQVDCSPGIWQLDCTHLEGKVILVAVHVASGYIEAEVIPAETGQETAYFLLKLAGRWPVKTVHTDNGSNFTSTTVKAACWWAGIKQEFGIPYNPQSQGVIESMNKELKKIIGQVRDQAEHLKTAVQMAVFIHNFKRKGGIGGYSAGERIVDIIATDIQTKELQKQITKIQNFRVYYRDSRDPVWKGPAKLLWKGEGAVVIQDNSDIKVVPRRKAKIIRDYGKQMAGDDCVASRQDED
modifications: Zn2+ bound in the NTD (H12, H16, C40, C43); native N-terminal Phe1; monomer-dimer equilibrium. Limits: the paper gives F1 as the start and full length; the integrase chain follows RT (ends at 1147) …
In the case of B1, the Kd [1] is reported as 59.8 µM, the Kd [2] is reported as over 1000 µM and the “stoichiometry N” value [3] is reported as 2.
